Source: the supplement of paper PMC7877785
± gives the uncertainty stated by the source.

Experiment: self-splicing fitness, log relative to wild type (ln ratio); higher = more splicing; Tetrahymena group I intron in knt gene, E. coli kanamycin selection, DiMSum; sequences stand for … in CUCUCU…GGAGGGAAAAGUUAUCAGGCAUGCACCUGGUAGCUAGUCUUUAAACCAAUAGAUUGCAUCGGUUUAAAAGGCAAGACCGUCAAAUUGCGGGAAAGGGGUCAACAGCCGUUCAGUACCAAGUCUCAGGGGAAACUUUGAGAUGGCCUUGCAAAGGGUAUGGUAAUAAGCUGACGGACAUGGUCCUAACCACGCAGCCAAGUCCUAAGUCAACAGAUCUUCUGUUGAUAUGGAUGCAGUUCACAGACUAAAUGUCGGUCGGGGAAGAUGUAUUCUUCUCAUAAGAUAUAGUCGGACCUCUCCUUAAUGGGAGCUAGCGGAUGAAGUGAUGCAACACUGGAGCCGCUGGGAACUAAUUUGUAUGCGAAAGUAUAUUGAUUAGUUUUGGAGUACUCGUGGUCG
Outline: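 Fitness was computed with DiMSum as the error-weighted combination of replicate fold changes, kanamycin versus none, each normalised to wild type. The library randomised all eight intron nucleotides of the P1ex region, with the intron placed in the knt kanamycin-resistance gene on pET-22b(+) in E. coli BL21(DE3). Six replicate transformations were grown overnight at 37°C or 30°C on LB agar with or without 25 μg/mL kanamycin, plus 100 μg/mL carbenicillin, 50 μM IPTG and 0.2% rhamnose. Pooled colonies were amplicon-sequenced on an Illumina HiSeq 2500.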

Sequence	self-splicing fitness (ln) (30 °C)	self-splicing fitness (ln) (37 °C)
AGACAGCAAUAUUACGCUCA	-0.572 ± 0.096	0.589 ± 0.12
AUCAAGCAAUAUUACGGCAC	-1.67 ± 0.1	-0.0454 ± 0.16
GUCCAGCAAUAUUACGAGCU	–	-1.96 ± 0.31
CCCCAGCAAUAUUACGACGA	-4.12 ± 0.39	-2.68 ± 0.27
UUAGAGCAAUAUUACGAAGA	-1.27 ± 0.13	-0.451 ± 0.23
CCGGAGCAAUAUUACGGAUC	-2.42 ± 0.31	–
CUGCAGCAAUAUUACGUUAA	-3.5 ± 0.24	-3.02 ± 0.27
CAGUAGCAAUAUUACGUGAC	-4.5 ± 0.36	-2.23 ± 0.31
CUUAAGCAAUAUUACGCGAG	-4.13 ± 0.34	-3.57 ± 0.33
GGUAAGCAAUAUUACGUGCC	-3.17 ± 0.39	-3.07 ± 0.38
GCGCAGCAAUAUUACGGAUU	-0.79 ± 0.039	-0.328 ± 0.056
CACAAGCAAUAUUACGCAGG	-2.65 ± 0.15	-1.01 ± 0.13
AGAAAGCAAUAUUACGCGAC	-2.25 ± 0.15	-1.65 ± 0.18
CAUUAGCAAUAUUACGUACC	-3.96 ± 0.21	-1.28 ± 0.13
GGAAAGCAAUAUUACGCCAU	-1.76 ± 0.18	-0.946 ± 0.31
UACCAGCAAUAUUACGUGAG	-2.27 ± 0.083	-1.56 ± 0.085
ACCUAGCAAUAUUACGGACG	-0.864 ± 0.07	-0.114 ± 0.1
AUUCAGCAAUAUUACGUACU	0.26 ± 0.079	-0.011 ± 0.095
CUGCAGCAAUAUUACGUGCG	-1.67 ± 0.093	-1.26 ± 0.11
AAAGAGCAAUAUUACGCCAC	-3.45 ± 0.49	-2.83 ± 0.47
CGGAAGCAAUAUUACGCCAG	-0.858 ± 0.27	-0.336 ± 0.26
GAGUAGCAAUAUUACGUGAA	-2.5 ± 0.16	-1.95 ± 0.15
CAAUAGCAAUAUUACGAUCC	-2.68 ± 0.46	–
AUCAAGCAAUAUUACGAAUA	-2.36 ± 0.21	-1.44 ± 0.17
GGGUAGCAAUAUUACGCUAU	-2.86 ± 0.22	-2.98 ± 0.31

Sequence	self-splicing fitness (ln) (30 °C)	self-splicing fitness (ln) (37 °C)
UCUGAGCAAUAUUACGAGGG	-4.14 ± 0.27	-2.5 ± 0.3
UCGCAGCAAUAUUACGGUGG	-3.36 ± 0.18	-2.85 ± 0.21
AAAUAGCAAUAUUACGCAGG	-1.68 ± 0.12	-1.65 ± 0.11
UCGAAGCAAUAUUACGAUUU	-4.4 ± 0.39	-1.97 ± 0.23
UCCGAGCAAUAUUACGUCUA	-3.11 ± 0.23	-3 ± 0.24
AUGCAGCAAUAUUACGAGAU	-3 ± 0.15	-1.54 ± 0.12
CGAUAGCAAUAUUACGCGGG	-4.21 ± 0.31	-2.42 ± 0.24
CUUGAGCAAUAUUACGGAAG	-2.62 ± 0.25	-2.23 ± 0.28
UCAUAGCAAUAUUACGACAC	–	-2.64 ± 0.29
ACAAAGCAAUAUUACGCUAC	-3.07 ± 0.28	-2.43 ± 0.33
AUAUAGCAAUAUUACGGCAA	-0.751 ± 0.18	-0.989 ± 0.19
UCAAAGCAAUAUUACGAUAG	-0.853 ± 0.11	-2.03 ± 0.15
CGUGAGCAAUAUUACGACAC	-2.5 ± 0.27	–
CGGAAGCAAUAUUACGCCAA	-2.25 ± 0.39	-2.08 ± 0.4
CUAGAGCAAUAUUACGUCCG	-0.472 ± 0.087	-0.0677 ± 0.14
UCCUAGCAAUAUUACGAGGA	-2.59 ± 0.48	-2.62 ± 0.35
GCGAAGCAAUAUUACGGGUA	-3.04 ± 0.23	-0.904 ± 0.17
AUAUAGCAAUAUUACGGGCC	-2.81 ± 0.3	-2.86 ± 0.43
GUACAGCAAUAUUACGGUAU	-4.07 ± 0.18	-2.45 ± 0.16
UAAAAGCAAUAUUACGGCUC	-1.05 ± 0.12	0.168 ± 0.17
AAUUAGCAAUAUUACGGAGU	-2.69 ± 0.2	-1.02 ± 0.17
UUCGAGCAAUAUUACGCAUU	–	-2.81 ± 0.43
UUCAAGCAAUAUUACGAGCU	-2.99 ± 0.23	-1.33 ± 0.18
CGCAAGCAAUAUUACGUGAA	-2.5 ± 0.11	-1.08 ± 0.11
AUCUAGCAAUAUUACGAUGC	-1.74 ± 0.13	-1.33 ± 0.16

Sequence	self-splicing fitness (ln) (30 °C)	self-splicing fitness (ln) (37 °C)
ACAAAGCAAUAUUACGACCC	-0.934 ± 0.16	0.532 ± 0.21
GGGUAGCAAUAUUACGAGUA	–	0.307 ± 0.22
UCCUAGCAAUAUUACGACUG	-3.17 ± 0.27	-3.52 ± 0.42
GCUAAGCAAUAUUACGAAAU	-1.64 ± 0.11	-0.218 ± 0.1
GUUGAGCAAUAUUACGGCCA	–	-0.675 ± 0.24
CAAUAGCAAUAUUACGACGA	-2.18 ± 0.22	-1.24 ± 0.14
AGCAAGCAAUAUUACGAGUA	-1.67 ± 0.12	-0.688 ± 0.12
UCAAAGCAAUAUUACGAGCU	-2.83 ± 0.23	-1.38 ± 0.22
GAACAGCAAUAUUACGCCAG	-3.71 ± 0.15	-3.05 ± 0.27
UUAAAGCAAUAUUACGUAGA	-1.55 ± 0.099	-0.654 ± 0.12
GGUGAGCAAUAUUACGCCAG	-2.86 ± 0.47	–
CGGCAGCAAUAUUACGCCUG	-0.88 ± 0.24	-1.89 ± 0.23
AGCUAGCAAUAUUACGUGAC	-3.94 ± 0.18	-1.26 ± 0.13
GAGUAGCAAUAUUACGCUAU	-3.73 ± 0.27	–
AUCGAGCAAUAUUACGCUGU	-2.24 ± 0.18	-3.35 ± 0.37
AACGAGCAAUAUUACGUUAA	-3.45 ± 0.36	-2.2 ± 0.24
UCUCAGCAAUAUUACGAAAU	–	-2.86 ± 0.32
GAUUAGCAAUAUUACGGUAU	-1.75 ± 0.12	-1.14 ± 0.14
CCCAAGCAAUAUUACGCGGG	-3.8 ± 0.17	-2.45 ± 0.18
GUACAGCAAUAUUACGAUUC	-0.318 ± 0.075	-0.0725 ± 0.11
UUUAAGCAAUAUUACGACUG	-0.203 ± 0.097	0.954 ± 0.12
CCGGAGCAAUAUUACGCAGU	-3.74 ± 0.28	-2.13 ± 0.25
ACCCAGCAAUAUUACGUGGC	-2.83 ± 0.13	-1.69 ± 0.11
GCUAAGCAAUAUUACGUAAC	-1.39 ± 0.11	-0.735 ± 0.14
ACUCAGCAAUAUUACGUUGG	-3.63 ± 0.15	-1.49 ± 0.096

Sequence	self-splicing fitness (ln) (30 °C)	self-splicing fitness (ln) (37 °C)
AUAGAGCAAUAUUACGGUGG	-1.24 ± 0.26	–
CCCAAGCAAUAUUACGAGGG	-4.18 ± 0.17	-2.53 ± 0.16
GACAAGCAAUAUUACGUUGU	-3.54 ± 0.12	-2.81 ± 0.14
AUUAAGCAAUAUUACGUGCG	-0.862 ± 0.091	0.0786 ± 0.13
UGCAAGCAAUAUUACGCGUC	-1.63 ± 0.18	-2.93 ± 0.26
GCACAGCAAUAUUACGAUAC	-1.21 ± 0.074	-0.488 ± 0.084
AGCUAGCAAUAUUACGCCCU	-0.747 ± 0.13	0.627 ± 0.15
GAGCAGCAAUAUUACGUAGU	-3.35 ± 0.19	-1.01 ± 0.15
CGGAAGCAAUAUUACGUGCA	-3.23 ± 0.23	-0.628 ± 0.13
GCUCAGCAAUAUUACGUUUC	-0.455 ± 0.065	-0.0579 ± 0.091
AGCGAGCAAUAUUACGCCUC	-1.82 ± 0.3	–
CCCUAGCAAUAUUACGCCUG	-3.64 ± 0.23	-3.11 ± 0.23
AAGGAGCAAUAUUACGCACA	–	-1.89 ± 0.47
GGCGAGCAAUAUUACGGAUC	-0.443 ± 0.053	0.039 ± 0.075
AUCAAGCAAUAUUACGUGUC	-3.9 ± 0.15	-2.6 ± 0.16
UUUCAGCAAUAUUACGGUUG	-1.62 ± 0.091	-1.1 ± 0.12
UACUAGCAAUAUUACGAUGC	-4.22 ± 0.26	-2.54 ± 0.3
CGCGAGCAAUAUUACGGGUU	-3.62 ± 0.2	-2.44 ± 0.2
UUCAAGCAAUAUUACGGGGC	-3.6 ± 0.27	-2.8 ± 0.33
UUCCAGCAAUAUUACGCAGU	-3.23 ± 0.17	-2.79 ± 0.28
CCCCAGCAAUAUUACGUGGA	-3.09 ± 0.086	-1.23 ± 0.068
UUACAGCAAUAUUACGGGCU	-3.86 ± 0.24	-2.32 ± 0.18
CGUGAGCAAUAUUACGGGGA	-3.34 ± 0.4	-3.62 ± 0.42
ACUAAGCAAUAUUACGCUCU	-0.0344 ± 0.097	-0.566 ± 0.1
